# According to US20180092966A1 (CSL, published 2018):
# B1: Factor VIII SingleChain P1688C mutant (other)
# chain: ATRRYYLGAVELSWDYMQSDLGELPVDARFPPRVPKSFPFNTSVVYKKTLFVEFTDHLFNIAKPRPPWMGLLGPTIQAEVYDTVVITLKNMASHPVSLHAVGVSYWKASEGAEYDDQTSQREKEDDKVFPGGSHTYVWQVLKENGPMASDPLCLTYSYLSHVDLVKDLNSGLIGALLVCREGSLAKEKTQTLHKFILLFAVFDEGKSWHSETKNSLMQDRDAASARAWPKMHTVNGYVNRSLPGLIGCHRKSVYWHVIGMGTTPEVHSIFLEGHTFLVRNHRQASLEISPITFLTAQTLLMDLGQFLLFCHISSHQHDGMEAYVKVDSCPEEPQLRMKNNEEAEDYDDDLTDSEMDVVRFDDDNSPSFIQIRSVAKKHPKTWVHYIAAEEEDWDYAPLVLAPDDRSYKSQYLNNGPQRIGRKYKKVRFMAYTDETFKTREAIQHESGILGPLLYGEVGDTLLIIFKNQASRPYNIYPHGITDVRPLYSRRLPKGVKHLKDFPILPGEIFKYKWTVTVEDGPTKSDPRCLTRYYSSFVNMERDLASGLIGPLLICYKESVDQRGNQIMSDKRNVILFSVFDENRSWYLTENIQRFLPNPAGVQLEDPEFQASNIMHSINGYVFDSLQLSVCLHEVAYWYILSIGAQTDFLSVFFSGYTFKHKMVYEDTLTLFPFSGETVFMSMENPGLWILGCHNSDFRNRGMTALLKVSSCDKNTGDYYEDSYEDISAYLLSKNNAIEPRSFSQNSRHRSTRQKQFNATTIPENTTLQSDQEEIDYDDTISVEMKKEDFDIYDEDENQSCRSFQKKTRHYFIAAVERLWDYGMSSSPHVLRNRAQSGSVPQFKKVVFQEFTDGSFTQPLYRGELNEHLGLLGPYIRAEVEDNIMVTFRNQASRPYSFYSSLISYEEDQRQGAEPRKNFVKPNETKTYFWKVQHHMAPTKDEFDCKAWAYFSDVDLEKDVHSGLIGPLLVCHTNTLNPAHGRQVTVQEFALFFTIFDETKSWYFTENMERNCRAPCNIQMEDPTFKENYRFHAINGYIMDTLPGLVMAQDQRIRWYLLSMGSNENIHSIHFSGHVFTVRKKEEYKMALYNLYPGVFETVEMLPSKAGIWRVECLIGEHLHAGMSTLFLVYSNKCQTPLGMASGHIRDFQITASGQYGQWAPKLARLHYSGSINAWSTKEPFSWIKVDLLAPMIIHGIKTQGARQKFSSLYISQFIIMYSLDGKKWQTYRGNSTGTLMVFFGNVDSSGIKHNIFNPPIIARYIRLHPTHYSIRSTLRMELMGCDLNSCSMPLGMESKAISDAQITASSYFTNMFATWSPSKARLHLQGRSNAWRPQVNNPKEWLQVDFQKTMKVTGVTTQGVKSLLTSMYVKEFLISSSQDGHQWTLFFQNGKVKVFQGNQDSFTPVVNSLDPPLLTRYLRIHPQSWVHQIALRMEVLGCEAQDLY
# notes: Single-chain FVIII with partial B-domain deletion; also called FVIII-SC P1688C; Cys residue at FVIII aa position 1688
# Tests used:
# [1] = biological target: T1, VWF-FP E1015C mutant (albumin-fused von Willebrand Factor) (human); assay: covalent-FVIII ELISA over FVIII antigen ELISA
# T1 construct: Stably expressed in CHO cells with furin co-transfected; also called VWF-FP mutant E1015C; Cys residue at VWF aa position 1015; not shown: linker between VWF and albumin, made in analogy to WO 2009/156137
# [2] = biological target: T2, VWF-FP K1116C mutant (albumin-fused von Willebrand Factor) (human); assay: covalent-FVIII ELISA over FVIII antigen ELISA
# T2 construct: Stably expressed in CHO cells with furin co-transfected; also called VWF-FP mutant K1116C; Cys residue at VWF aa position 1116; not shown: linker between VWF and albumin, made in analogy to WO 2009/156137
# [3] = biological target: T3, VWF-FP L984C mutant (albumin-fused von Willebrand Factor) (human); assay: covalent-FVIII ELISA over FVIII antigen ELISA
# T3 construct: Stably expressed in CHO cells with furin co-transfected; also called VWF-FP mutant L984C; Cys residue at VWF aa position 984; not shown: linker between VWF and albumin, made in analogy to WO 2009/156137
# [4] = biological target: T4, VWF-FP N1134C mutant (albumin-fused von Willebrand Factor) (human); assay: covalent-FVIII ELISA over FVIII antigen ELISA
# T4 construct: Stably expressed in CHO cells with furin co-transfected; also called VWF-FP mutant N1134C; Cys residue at VWF aa position 1134; not shown: linker between VWF and albumin, made in analogy to WO 2009/156137
# [5] = biological target: T5, VWF-FP H817C mutant (albumin-fused von Willebrand Factor) (human); assay: covalent-FVIII ELISA over FVIII antigen ELISA
# T5 construct: Stably expressed in CHO cells with furin co-transfected; also called VWF-FP mutant H817C; Cys residue at VWF aa position 817; not shown: linker between VWF and albumin, made in analogy to WO 2009/156137
# [6] = biological target: T6, VWF-FP R768C mutant (albumin-fused von Willebrand Factor) (human); assay: covalent-FVIII ELISA over FVIII antigen ELISA
# T6 construct: Stably expressed in CHO cells with furin co-transfected; also called VWF-FP mutant R768C; Cys residue at VWF aa position 768; not shown: linker between VWF and albumin, made in analogy to WO 2009/156137
# [7] = biological target: T1, VWF-FP E1015C mutant (albumin-fused von …); assay: covalent-FVIII ELISA over FVIII activity assay
# [8] = biological target: T2, VWF-FP K1116C mutant (albumin-fused von …); assay: covalent-FVIII ELISA over FVIII activity assay
# [9] = biological target: T3, VWF-FP L984C mutant (albumin-fused von …); assay: covalent-FVIII ELISA over FVIII activity assay
# [10] = biological target: T4, VWF-FP N1134C mutant (albumin-fused von …); assay: covalent-FVIII ELISA over FVIII activity assay
# [11] = biological target: T5, VWF-FP H817C mutant (albumin-fused von …); assay: covalent-FVIII ELISA over FVIII activity assay
# [12] = biological target: T6, VWF-FP R768C mutant (albumin-fused von …); assay: covalent-FVIII ELISA over FVIII activity assay
# [13] = biological target: T1, VWF-FP E1015C mutant (albumin-fused von …); assay: ELISA of co-expression supernatant: anti-VWF capture, 350 mM CaCl2 wash, anti-FVIII detection
# Description: (§1) Cell culture supernatant samples (10 ml) from transient transfections were concentrated with Amicon Ultracell-30K (Millipore UFC903024; 3000 g centrifugation). FVIII covalently attached to VWF-FP in culture supernatant (concentrates) was determined by a standard ELISA. Briefly, microplates were incubated with 100 μL per well of the capture antibody (rabbit anti human VWF-IgG, Dako A0082 [Dako, Hamburg, Germany], diluted 1:2000 in buffer A [Sigma C3041, Sigma-Aldrich, Munich, Germany]) overnight at ambient temperature. After washing plates three times with buffer B (Sigma T9039), each well was incubated with 200 μL buffer C (Sigma T6789) for 1.5 hours at ambient temperature (blocking). After another three wash steps with buffer B, serial dilutions of the test sample in buffer B as well as serial dilutions of a control preparation of covalently linked FVIII-VWF-FP, (2.0-0.03 arbitrary U/ml in buffer B (we call these “arbitrary units” as they may not correspond to the standard FVIII units as determined using Standard Human Plasma); volumes per well: 100 μL) were incubated for 1.5 hours at ambient temperature. After three wash steps with buffer B, 200 μL of 350 mM CaCl₂ were added to each well and incubated for 1 hour at ambient temperature. CaCl₂ was removed (without washing) and additional 200 μl were added to each well and incubated further for 1 hour. After three wash steps with buffer B 100 μL of a 1:2 dilution in buffer B of the detection antibody (Detecting Antibody for FVIII:C, peroxidase labelled, Cedarlane CL20035K-D) were added to each well and incubated for 1 hour at ambient temperature. After three wash steps with buffer B, 100 μL of substrate solution (OUVF, Siemens Healthcare Diagnostics) were added per well and incubated for 15 minutes at ambient temperature in the dark. Addition of 100 μL undiluted stop dilution (OSFA, Siemens Healthcare Diagnostics) prepared the samples for reading in a suitable microplate reader at 450 nm wavelength. Concentrations of the test samples were then calculated using the standard curve with the control preparation.
# [14] = biological target: T2, VWF-FP K1116C mutant (albumin-fused von …); assay: as above
# Description: as §1
# [15] = biological target: T3, VWF-FP L984C mutant (albumin-fused von …); assay: as above
# Description: as §1
# [16] = biological target: T4, VWF-FP N1134C mutant (albumin-fused von …); assay: as above
# Description: as §1
# [17] = biological target: T5, VWF-FP H817C mutant (albumin-fused von …); assay: as above
# Description: as §1
# [18] = biological target: T6, VWF-FP R768C mutant (albumin-fused von …); assay: as above
# Description: as §1
# T1 sequence (chain, as listed by the source E1015C E1015C): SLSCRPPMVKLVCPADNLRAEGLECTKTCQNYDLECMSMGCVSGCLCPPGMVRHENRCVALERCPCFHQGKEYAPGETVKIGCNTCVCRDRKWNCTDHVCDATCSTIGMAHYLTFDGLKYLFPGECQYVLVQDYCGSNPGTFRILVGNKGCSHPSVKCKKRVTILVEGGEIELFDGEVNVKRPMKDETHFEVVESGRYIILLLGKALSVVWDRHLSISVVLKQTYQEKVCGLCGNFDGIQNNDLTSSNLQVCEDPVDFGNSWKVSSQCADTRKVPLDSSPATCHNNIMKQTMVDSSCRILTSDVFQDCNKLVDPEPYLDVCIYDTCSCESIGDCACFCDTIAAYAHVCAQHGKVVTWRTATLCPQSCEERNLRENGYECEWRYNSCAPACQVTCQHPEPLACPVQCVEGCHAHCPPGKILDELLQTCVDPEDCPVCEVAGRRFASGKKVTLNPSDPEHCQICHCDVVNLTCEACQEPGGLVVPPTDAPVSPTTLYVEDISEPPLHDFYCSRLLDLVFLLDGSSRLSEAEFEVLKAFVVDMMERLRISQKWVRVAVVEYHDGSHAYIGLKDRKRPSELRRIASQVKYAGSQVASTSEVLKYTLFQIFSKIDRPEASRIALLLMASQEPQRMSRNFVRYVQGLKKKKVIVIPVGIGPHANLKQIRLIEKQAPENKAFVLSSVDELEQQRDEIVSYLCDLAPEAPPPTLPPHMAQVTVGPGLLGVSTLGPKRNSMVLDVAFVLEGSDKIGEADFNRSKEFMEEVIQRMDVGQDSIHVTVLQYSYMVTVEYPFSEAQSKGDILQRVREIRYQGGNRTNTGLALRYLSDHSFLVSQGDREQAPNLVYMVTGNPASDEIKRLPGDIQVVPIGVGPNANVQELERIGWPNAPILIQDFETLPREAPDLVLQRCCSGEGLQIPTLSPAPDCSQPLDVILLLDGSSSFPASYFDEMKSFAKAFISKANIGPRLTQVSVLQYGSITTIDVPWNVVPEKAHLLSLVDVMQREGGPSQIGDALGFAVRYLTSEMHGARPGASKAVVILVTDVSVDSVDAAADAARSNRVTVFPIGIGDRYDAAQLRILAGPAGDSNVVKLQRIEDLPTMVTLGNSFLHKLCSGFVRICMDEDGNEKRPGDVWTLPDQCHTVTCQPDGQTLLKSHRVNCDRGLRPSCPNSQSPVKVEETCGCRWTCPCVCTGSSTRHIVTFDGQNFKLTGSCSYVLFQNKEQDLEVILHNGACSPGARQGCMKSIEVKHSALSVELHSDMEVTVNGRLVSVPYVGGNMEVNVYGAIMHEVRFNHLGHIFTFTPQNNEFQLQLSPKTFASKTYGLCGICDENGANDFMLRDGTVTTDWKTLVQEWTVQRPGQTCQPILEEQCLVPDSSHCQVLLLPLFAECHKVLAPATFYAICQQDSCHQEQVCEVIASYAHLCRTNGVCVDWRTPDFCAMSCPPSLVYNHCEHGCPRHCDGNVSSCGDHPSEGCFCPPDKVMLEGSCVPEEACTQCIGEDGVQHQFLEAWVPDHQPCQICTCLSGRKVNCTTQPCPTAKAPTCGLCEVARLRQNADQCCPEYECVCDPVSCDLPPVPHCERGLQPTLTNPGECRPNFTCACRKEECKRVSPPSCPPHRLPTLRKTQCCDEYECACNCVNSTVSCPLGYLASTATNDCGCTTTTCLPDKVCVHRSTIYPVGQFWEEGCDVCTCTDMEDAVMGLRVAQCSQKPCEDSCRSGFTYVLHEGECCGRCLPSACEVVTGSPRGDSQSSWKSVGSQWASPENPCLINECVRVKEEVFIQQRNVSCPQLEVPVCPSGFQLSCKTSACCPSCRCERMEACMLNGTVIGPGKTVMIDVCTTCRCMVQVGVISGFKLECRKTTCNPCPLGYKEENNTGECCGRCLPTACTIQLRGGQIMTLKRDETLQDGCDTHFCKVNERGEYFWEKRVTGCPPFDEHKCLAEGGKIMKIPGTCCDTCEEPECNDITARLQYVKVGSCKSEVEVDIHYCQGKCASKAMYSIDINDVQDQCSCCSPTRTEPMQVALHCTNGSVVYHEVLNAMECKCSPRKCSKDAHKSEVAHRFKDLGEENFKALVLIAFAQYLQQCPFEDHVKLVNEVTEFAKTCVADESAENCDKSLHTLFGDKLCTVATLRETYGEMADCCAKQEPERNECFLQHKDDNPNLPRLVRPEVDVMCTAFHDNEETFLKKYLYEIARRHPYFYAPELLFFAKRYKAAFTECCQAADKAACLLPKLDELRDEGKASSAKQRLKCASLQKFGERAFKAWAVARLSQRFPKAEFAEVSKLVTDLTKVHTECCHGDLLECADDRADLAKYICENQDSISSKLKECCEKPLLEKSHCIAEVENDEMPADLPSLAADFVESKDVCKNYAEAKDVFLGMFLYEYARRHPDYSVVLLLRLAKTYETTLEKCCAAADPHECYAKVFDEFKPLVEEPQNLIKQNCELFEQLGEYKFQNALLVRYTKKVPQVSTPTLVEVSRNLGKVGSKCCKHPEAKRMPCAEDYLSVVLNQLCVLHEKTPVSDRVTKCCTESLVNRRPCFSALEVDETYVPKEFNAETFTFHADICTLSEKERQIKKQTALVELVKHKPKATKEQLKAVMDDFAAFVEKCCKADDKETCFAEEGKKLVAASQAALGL
# T4 sequence (chain, as listed by the source N1134C N1134C): as the sequence (chain, as listed by the source E1015C E1015C) above, with C252E, N371C counted along it
# T5 sequence (chain, as listed by the source H817C H817C): as the sequence (chain, as listed by the source E1015C E1015C) above, with H54C, C252E counted along it
# T6 sequence (chain, as listed by the source R768C R768C): as the sequence (chain, as listed by the source E1015C E1015C) above, with R5C, C252E counted along it
# T2 sequence (chain, as listed by the source K1116C K1116C): as the sequence (chain, as listed by the source E1015C E1015C) above, with C252E, K353C counted along it
# T3 sequence (chain, as listed by the source L984C L984C): as the sequence (chain, as listed by the source E1015C E1015C) above, with L221C, C252E counted along it
binder,measurement,setting,value
B1,ratio covalent FVIII/Total FVIII antigen,[1],0.53
same,ratio covalent FVIII/Total FVIII antigen,[2],1.89
same,ratio covalent FVIII/Total FVIII antigen,[3],0.96
same,ratio covalent FVIII/Total FVIII antigen,[4],6.11
same,ratio covalent FVIII/Total FVIII antigen,[5],0.29
same,ratio covalent FVIII/Total FVIII antigen,[6],2.13
same,ratio covalent FVIII/Total FVIII activity,[7],1.59
same,ratio covalent FVIII/Total FVIII activity,[8],0.61
same,ratio covalent FVIII/Total FVIII activity,[9],2.45
same,ratio covalent FVIII/Total FVIII activity,[10],1.87
same,ratio covalent FVIII/Total FVIII activity,[11],1.89
same,ratio covalent FVIII/Total FVIII activity,[12],18.8
same,covalent FVIII,[13],1080 amU/ml
same,covalent FVIII,[14],666 amU/ml
same,covalent FVIII,[15],1900 amU/ml
same,covalent FVIII,[16],650 amU/ml
same,covalent FVIII,[17],367 amU/ml
same,covalent FVIII,[18],2060 amU/ml
